Data from patent US20230065562A1, “DUAL CONTROLS FOR THERAPEUTIC CELL ACTIVATION OR ELIMINATION” (Bellicum Pharmaceuticals, Inc., priority 2015, published 2023).
Positions count from the first letter of the chain named. Numbers in names are those of the source.

Tested on: HEK293T/16 cells
Test: Secreted alkaline phosphatase (SEAP)-based surrogate killing assay of iCasp9 mutants
Format: cell-based, human
Details: for Basal Activity (relative to wild type/unmodified Caspase-9): SEAP assay without AP1903
Protocol: Early passage HEK293T/16 cells (ATCC, Manassas, Va.) were maintained in IMDM, GlutaMAX™ (Life Technologies, Carlsbad, Calif.) supplemented with 10% FBS, 100 U/mL penicillin, and 100 […] until transfection in a humidified, 37° C., 5% CO2/95% air atmosphere. Cells in logarithmic-phase growth were transiently transfected with 800 ng to 2 μg of expression plasmid encoding iCasp9 mutants and 500 ng of an expression plasmid encoding SRα promoter driven SEAP per million cells in 15-mL conical tubes. […] GeneJammer® Transfection Reagent at a ratio of 3 μl per ug of plasmid DNA was used to transiently transfect HEK293T/16 cells in the absence of antibiotics. 100 μl or 2 mL of the transfection mixture was added to each well in 96-well or 6-well plate, respectively.
Briefly, after 65° C. heat denaturation for 45 minutes to reduce background caused by endogenous (and serum-derived) alkaline phosphatases that are sensitive to heat, 5 μl of supernatants was added to 95 μl of PBS and added to 100 μl of substrate buffer, containing 1 μl of 100 mM 4-methylumbelliferyl phosphate (4-MUP; Sigma, St. Louis, Mo.) re-suspended in 2 M diethanolamine. Hydrolysis of 4-MUP by SEAP produces a fluorescent […] with excitation/emission (355/460 nm), which can be easily measured. Assays were performed in black opaque 96-well plates to minimize fluorescence leakage between wells. […] of the mixture was seeded onto each well of a 96-well plate. […] For the assay, 4-methylumbelliferyl phosphate substrate was hydrolyzed by SEAP to 4-methylumbelliferon, a metabolite that can be excited with 364 nm and detected with an emission filter of 448 nm. Since SEAP is used as a marker for cell viability, reduced SEAP reading corresponds with increased iCaspase-9 activities.

B1: D330A-S183A: modified iCasp9 double mutant (protein, UniProt P55211 1-416, looked up, variant D330A S183A)
chain: MDEADRRLLRRCRLRLVEELQVDQLWDALLSRELFRPHMIEDIQRAGSGSRRDQARQLIIDLETRGSQALPLFISCLEDTGQDMLASFLRTNRQAAKLSKPTLENLTPVVLRPEIRKPEVLRPETPRPVDIGSGGFGDVGALESLRGNADLAYILSMEPCGHCLIINNVNFCRESGLRTRTGANIDCEKLRRRFSSLHFMVEVKGDLTAKKMVLALLELAQQDHGALDCCVVVILSHGCQASHLQFPGAVYGTDGCPVSVEKIVNIFNGTSCPSLGGKPKLFFIQACGGEQKDHGFEVASTSPEDESPGSNPEPDATPFQEGLRTFDQLAAISSLPTPSDIFVSYSTFPGFVSWRDPKSGSWYVETLDDIFEQWAHSEDLQSLLLRVANAVSVKGIYKQMPGCFNFLRKKLFFKTS
modifications: FKBP12-F36V fusion (iCasp9), CARD deleted
notes: modified iCasp9 double mutant
Basal Activity (relative to wild type/unmodified Caspase-9): Decreased

B2: ^402GCFNF^406QPTFT: modified iCasp9, residues 402-406 replaced by Caspase-8 QPTFT (protein, UniProt P55211 1-416, looked up, variant G402Q C403P F404T N405F F406T)
chain: B1 chain with A183S, A330D, G402Q, C403P, F404T, N405F, F406T
modifications: FKBP12-F36V fusion (iCasp9), CARD deleted
notes: modified iCasp9, residues 402-406 replaced by Caspase-8 QPTFT
Basal Activity (relative to wild type/unmodified Caspase-9): dead

B3: N405Qco: codon-optimized version of N405Q modified Caspase-9 (protein, UniProt P55211 1-416, looked up, variant N405Q)
chain: B1 chain with A183S, A330D, N405Q
modifications: FKBP12-F36V fusion (iCasp9), codon-optimized
Basal Activity (relative to wild type/unmodified Caspase-9): Decreased

B4: D330A-T317E: modified iCasp9 double mutant (protein, UniProt P55211 1-416, looked up, variant D330A T317E)
chain: B1 chain with A183S, T317E
modifications: FKBP12-F36V fusion (iCasp9), CARD deleted
notes: modified iCasp9 double mutant
Basal Activity (relative to wild type/unmodified Caspase-9): dead

B5: S307A: modified iCasp9, S307A (protein, UniProt P55211 1-416, looked up, variant S307A)
chain: B1 chain with A183S, S307A, A330D
modifications: FKBP12-F36V fusion (iCasp9), CARD deleted
Basal Activity (relative to wild type/unmodified Caspase-9): Decreased

B6: Y153A: modified iCasp9, Y153A (protein, UniProt P55211 1-416, looked up, variant Y153A)
chain: B1 chain with Y153A, A183S, A330D
modifications: FKBP12-F36V fusion (iCasp9), CARD deleted
Basal Activity (relative to wild type/unmodified Caspase-9): Decreased

B7: N405Q-S144Aco: codon-optimized double mutant, class predicted (protein, UniProt P55211 1-416, looked up, variant N405Q S144A)
chain: B1 chain with S144A, A183S, A330D, N405Q
modifications: FKBP12-F36V fusion (iCasp9), codon-optimized
notes: codon-optimized double mutant, class predicted
Basal Activity (relative to wild type), predicted mutants (*) (marked '*, predicated'): Decreased

B8: N405Q-S144D: modified iCasp9 double mutant (protein, UniProt P55211 1-416, looked up, variant N405Q S144D)
chain: B1 chain with S144D, A183S, A330D, N405Q
modifications: FKBP12-F36V fusion (iCasp9), CARD deleted
notes: modified iCasp9 double mutant
Basal Activity (relative to wild type/unmodified Caspase-9): Decreased

B9: D330A-Y153F: modified iCasp9 double mutant (protein, UniProt P55211 1-416, looked up, variant D330A Y153F)
chain: B1 chain with Y153F, A183S
modifications: FKBP12-F36V fusion (iCasp9), CARD deleted
notes: modified iCasp9 double mutant
Basal Activity (relative to wild type/unmodified Caspase-9): dead

B10: L329E: modified iCasp9, L329E (protein)
chain: VDGFGDVGALESLRGNADLAYILSMEPCGHCLIINNVNFCRESGLRTRTGSNIDCEKLRRRFSSLHFMVEVKGDLTAKKMVLALLELARQDHGALDCCVVVILSHGCQASHLQFPGAVYGTDGCPVSVEKIVNIFNGTSCPSLGGKPKLFFIQACGGEQKDHGFEVASTSPEDESPGSNPEPDATPFQEGLRTFDQEDAISSLPTPSDIFVSYSTFPGFVSWRDPKSGSWYVETLDDIFEQWAHSEDLQSLLLRVANAVSVKGIYKQMPGCFNFLRKKLFFKTSASRA
Basal Activity (relative to wild type/unmodified Caspase-9): Decreased

B11: S183A: modified iCasp9, S183A (protein)
chain: B10 chain with S51A, E197L
Basal Activity (relative to wild type/unmodified Caspase-9): Decreased

B12: D330A-S144A: modified iCasp9 double mutant (protein)
chain: B10 chain with S12A, E197L, D198A
Basal Activity (relative to wild type/unmodified Caspase-9): Decreased

B13: S196D: modified iCasp9, S196D (protein)
chain: B10 chain with S64D, E197L
Basal Activity (relative to wild type/unmodified Caspase-9): Decreased

B14: S144A: modified iCasp9, S144A (protein)
chain: B10 chain with S12A, E197L
Basal Activity (relative to wild type/unmodified Caspase-9): Decreased

B15: D330A-S144D: modified iCasp9 double mutant (protein)
chain: B10 chain with S12D, E197L, D198A
Basal Activity (relative to wild type/unmodified Caspase-9): Decreased

B16: S144D: modified iCasp9, S144D (protein)
chain: B10 chain with S12D, E197L
Basal Activity (relative to wild type/unmodified Caspase-9): Decreased

B17: S196A: modified iCasp9, S196A (protein)
chain: B10 chain with S64A, E197L
Basal Activity (relative to wild type/unmodified Caspase-9): Decreased

B18: N405Q-S144A: modified iCasp9 double mutant (protein)
chain: B10 chain with S12A, E197L, N273Q
Basal Activity (relative to wild type/unmodified Caspase-9): Decreased

B19: D330A-S196A: modified iCasp9 double mutant (protein)
chain: B10 chain with S64A, E197L, D198A
Basal Activity (relative to wild type/unmodified Caspase-9): Decreased
